The values that follow come from patent publication US8673848 (Novartis, dated 2014).

For the assay, the target named is T1, human APJ receptor (hAPJ) (human, UniProt P35414 1-380).
T1 sequence (looked up): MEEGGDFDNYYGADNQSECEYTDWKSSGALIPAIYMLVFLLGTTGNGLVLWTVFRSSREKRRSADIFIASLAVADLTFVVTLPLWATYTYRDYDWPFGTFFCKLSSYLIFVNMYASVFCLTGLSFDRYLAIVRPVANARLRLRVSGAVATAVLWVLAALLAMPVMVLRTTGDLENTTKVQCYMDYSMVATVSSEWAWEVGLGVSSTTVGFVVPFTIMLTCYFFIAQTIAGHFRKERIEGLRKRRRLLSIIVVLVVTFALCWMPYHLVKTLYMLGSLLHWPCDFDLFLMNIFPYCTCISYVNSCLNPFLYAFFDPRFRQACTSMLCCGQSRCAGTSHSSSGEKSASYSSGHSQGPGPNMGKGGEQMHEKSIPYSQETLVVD
The assay is described as follows: cell-based or functional assay.

Bridges are numbered along the chain shown (N, C = ends). [ ]: non-standard residue; d: D form. The star is where a group is joined. 3Pal = N[C@@H](Cc1cccnc1)C(=O)O; Myristoyl = CCCCCCCCCCCCCC(=O)*; pGlu = O=C1CC[C@@H](C(=O)O)N1; d(hCys) = N[C@H](CCS)C(=O)O; hCys = N[C@@H](CCS)C(=O)O; Nle = CCCC[C@H](N)C(=O)O; AEEA = NCCOCCOCC(=O)O

B1: Example 48: pE-R-P-R-L-C-H-K-G-P-Nle-C-H-OH (peptide)
peptide: [pGlu]RPRLCHKGP[Nle]CH-OH
modifications: disulfide 6-12
SMILES: CCCC[C@@H]1NC(=O)[C@@H]2CCCN2C(=O)CNC(=O)[C@H](CCCCN)NC(=O)[C@H](Cc2c[nH]cn2)NC(=O)[C@@H](NC(=O)[C@H](CC(C)C)NC(=O)[C@H](CCCNC(=N)N)NC(=O)[C@@H]2CCCN2C(=O)[C@H](CCCNC(=N)N)NC(=O)[C@@H]2CCC(=O)N2)CSSC[C@@H](C(=O)N[C@@H](Cc2c[nH]cn2)C(=O)O)NC1=O
Take B1: the “hAPJ Ca2+ Flux EC50” value was found to be 4.1 nM.

B2: Example 57: pE-R-P-R-L-c-H-K-G-P-Nle-c-F-OH (peptide)
peptide: [pGlu]RPRL[dC]HKGP[Nle][dC]F-OH
modifications: disulfide 6-12
SMILES: CCCC[C@@H]1NC(=O)[C@@H]2CCCN2C(=O)CNC(=O)[C@H](CCCCN)NC(=O)[C@H](Cc2c[nH]cn2)NC(=O)[C@H](NC(=O)[C@H](CC(C)C)NC(=O)[C@H](CCCNC(=N)N)NC(=O)[C@@H]2CCCN2C(=O)[C@H](CCCNC(=N)N)NC(=O)[C@@H]2CCC(=O)N2)CSSC[C@H](C(=O)N[C@@H](Cc2ccccc2)C(=O)O)NC1=O
With B2, the “hAPJ Ca2+ Flux EC50” value is 2.01 nM.

B3: Example 50: pE-R-P-R-L-C-H-K-G-P-Nle-C-OH (peptide)
peptide: [pGlu]RPRLCHKGP[Nle]C-OH
modifications: disulfide 6-12
SMILES: CCCC[C@@H]1NC(=O)[C@@H]2CCCN2C(=O)CNC(=O)[C@H](CCCCN)NC(=O)[C@H](Cc2c[nH]cn2)NC(=O)[C@@H](NC(=O)[C@H](CC(C)C)NC(=O)[C@H](CCCNC(=N)N)NC(=O)[C@@H]2CCCN2C(=O)[C@H](CCCNC(=N)N)NC(=O)[C@@H]2CCC(=O)N2)CSSC[C@@H](C(=O)O)NC1=O
Turning to B3, the “hAPJ Ca2+ Flux EC50” value turned out to be 1.92 nM.
The value for [pGlu]RPRLKFKGP[Nle]F (lactam 6-C) [Example 5: pE-R-P-R-L-K-F-K-G-P-Nle-F] was 21.2 nM.

B4: Example 43: pE-R-P-R-L-C-E-K-G-P-Nle-C-F-OH (peptide)
peptide: [pGlu]RPRLCEKGP[Nle]CF-OH
modifications: disulfide 6-12
SMILES: CCCC[C@@H]1NC(=O)[C@@H]2CCCN2C(=O)CNC(=O)[C@H](CCCCN)NC(=O)[C@H](CCC(=O)O)NC(=O)[C@@H](NC(=O)[C@H](CC(C)C)NC(=O)[C@H](CCCNC(=N)N)NC(=O)[C@@H]2CCCN2C(=O)[C@H](CCCNC(=N)N)NC(=O)[C@@H]2CCC(=O)N2)CSSC[C@@H](C(=O)N[C@@H](Cc2ccccc2)C(=O)O)NC1=O
Consider B4, for which the “hAPJ Ca2+ Flux EC50” value was determined as 4.14 nM.

B5: Example 47: pE-R-P-R-L-C-H-K-G-P-(3-PyA)-C-F-OH (peptide)
peptide: [pGlu]RPRLCHKGP[3Pal]CF-OH
modifications: disulfide 6-12
SMILES: CC(C)C[C@H](NC(=O)[C@H](CCCNC(=N)N)NC(=O)[C@@H]1CCCN1C(=O)[C@H](CCCNC(=N)N)NC(=O)[C@@H]1CCC(=O)N1)C(=O)N[C@H]1CSSC[C@@H](C(=O)N[C@@H](Cc2ccccc2)C(=O)O)NC(=O)[C@H](Cc2cccnc2)NC(=O)[C@@H]2CCCN2C(=O)CNC(=O)[C@H](CCCCN)NC(=O)[C@H](Cc2c[nH]cn2)NC1=O
Take B5: the “hAPJ Ca2+ Flux EC50” value is 2.41 nM.

B6: Example 42: pE-R-P-R-D-C-H-K-G-P-Nle-C-F-OH (peptide)
peptide: [pGlu]RPRDCHKGP[Nle]CF-OH
modifications: disulfide 6-12
SMILES: CCCC[C@@H]1NC(=O)[C@@H]2CCCN2C(=O)CNC(=O)[C@H](CCCCN)NC(=O)[C@H](Cc2c[nH]cn2)NC(=O)[C@@H](NC(=O)[C@H](CC(=O)O)NC(=O)[C@H](CCCNC(=N)N)NC(=O)[C@@H]2CCCN2C(=O)[C@H](CCCNC(=N)N)NC(=O)[C@@H]2CCC(=O)N2)CSSC[C@@H](C(=O)N[C@@H](Cc2ccccc2)C(=O)O)NC1=O
As to B6, the “hAPJ Ca2+ Flux EC50” value stood at 92.8 nM.

B7: Example 55: pE-R-P-R-L-(D-hC)-H-K-G-P-Nle-(D-hC)-F-OH (peptide)
peptide: [pGlu]RPRL[d(hCys)]HKGP[Nle][d(hCys)]F-OH
modifications: disulfide 6-12
SMILES: CCCC[C@@H]1NC(=O)[C@@H]2CCCN2C(=O)CNC(=O)[C@H](CCCCN)NC(=O)[C@H](Cc2c[nH]cn2)NC(=O)[C@H](NC(=O)[C@H](CC(C)C)NC(=O)[C@H](CCCNC(=N)N)NC(=O)[C@@H]2CCCN2C(=O)[C@H](CCCNC(=N)N)NC(=O)[C@@H]2CCC(=O)N2)CCSSCC[C@H](C(=O)N[C@@H](Cc2ccccc2)C(=O)O)NC1=O
With B7, the “hAPJ Ca2+ Flux EC50” value was determined as 8.16 nM.

B8: Example 56: pE-R-P-R-L-C-H-K-G-P-Nle-c-F-OH (peptide)
peptide: [pGlu]RPRLCHKGP[Nle][dC]F-OH
modifications: disulfide 6-12
SMILES: CCCC[C@@H]1NC(=O)[C@@H]2CCCN2C(=O)CNC(=O)[C@H](CCCCN)NC(=O)[C@H](Cc2c[nH]cn2)NC(=O)[C@@H](NC(=O)[C@H](CC(C)C)NC(=O)[C@H](CCCNC(=N)N)NC(=O)[C@@H]2CCCN2C(=O)[C@H](CCCNC(=N)N)NC(=O)[C@@H]2CCC(=O)N2)CSSC[C@H](C(=O)N[C@@H](Cc2ccccc2)C(=O)O)NC1=O
With B8, the “hAPJ Ca2+ Flux EC50” value is 1.12 nM.

B9: Example 58: Myristoyl-O2Oc-O2Oc-Q-R-P-R-L-C-H-K-G-P-Nle-C-f-OH (peptide)
peptide: Myristoyl-[AEEA][AEEA]QRPRLCHKGP[Nle]C[dF]-OH
modifications: disulfide 8-14
SMILES: CCCCCCCCCCCCCC(=O)NCCOCCOCC(=O)NCCOCCOCC(=O)N[C@@H](CCC(N)=O)C(=O)N[C@@H](CCCNC(=N)N)C(=O)N1CCC[C@H]1C(=O)N[C@@H](CCCNC(=N)N)C(=O)N[C@@H](CC(C)C)C(=O)N[C@H]1CSSC[C@@H](C(=O)N[C@H](Cc2ccccc2)C(=O)O)NC(=O)[C@H](CCCC)NC(=O)[C@@H]2CCCN2C(=O)CNC(=O)[C@H](CCCCN)NC(=O)[C@H](Cc2c[nH]cn2)NC1=O
Regarding B9, the “hAPJ Ca2+ Flux EC50” value is 13.1 nM.

B10: Example 52: pE-R-P-R-L-hC-H-K-G-P-Nle-hC-F-OH (peptide)
peptide: [pGlu]RPRL[hCys]HKGP[Nle][hCys]F-OH
modifications: disulfide 6-12
SMILES: CCCC[C@@H]1NC(=O)[C@@H]2CCCN2C(=O)CNC(=O)[C@H](CCCCN)NC(=O)[C@H](Cc2c[nH]cn2)NC(=O)[C@@H](NC(=O)[C@H](CC(C)C)NC(=O)[C@H](CCCNC(=N)N)NC(=O)[C@@H]2CCCN2C(=O)[C@H](CCCNC(=N)N)NC(=O)[C@@H]2CCC(=O)N2)CCSSCC[C@@H](C(=O)N[C@@H](Cc2ccccc2)C(=O)O)NC1=O
In the case of B10, the “hAPJ Ca2+ Flux EC50” value turned out to be 53.9 nM.

B11: Example 45: pE-R-P-R-L-C-H-K-R-P-Nle-C-F-OH (peptide)
peptide: [pGlu]RPRLCHKRP[Nle]CF-OH
modifications: disulfide 6-12
SMILES: CCCC[C@@H]1NC(=O)[C@@H]2CCCN2C(=O)[C@H](CCCNC(=N)N)NC(=O)[C@H](CCCCN)NC(=O)[C@H](Cc2c[nH]cn2)NC(=O)[C@@H](NC(=O)[C@H](CC(C)C)NC(=O)[C@H](CCCNC(=N)N)NC(=O)[C@@H]2CCCN2C(=O)[C@H](CCCNC(=N)N)NC(=O)[C@@H]2CCC(=O)N2)CSSC[C@@H](C(=O)N[C@@H](Cc2ccccc2)C(=O)O)NC1=O
Regarding B11, the “hAPJ Ca2+ Flux EC50” value is 6.55 nM.
In the case of [pGlu]RPRLCHKG[Pipecolic acid][Nle]CF-OH (disulfide 6-12) [Example 46: pE-R-P-R-L-C-H-K-G-(Pipecolic acid)-Nle-C-F-OH] it was 3.87 nM.

B12: Example 49: pE-R-P-R-L-C-H-K-G-P-Nle-C-E-OH (peptide)
peptide: [pGlu]RPRLCHKGP[Nle]CE-OH
modifications: disulfide 6-12
SMILES: CCCC[C@@H]1NC(=O)[C@@H]2CCCN2C(=O)CNC(=O)[C@H](CCCCN)NC(=O)[C@H](Cc2c[nH]cn2)NC(=O)[C@@H](NC(=O)[C@H](CC(C)C)NC(=O)[C@H](CCCNC(=N)N)NC(=O)[C@@H]2CCCN2C(=O)[C@H](CCCNC(=N)N)NC(=O)[C@@H]2CCC(=O)N2)CSSC[C@@H](C(=O)N[C@@H](CCC(=O)O)C(=O)O)NC1=O
As to B12, the “hAPJ Ca2+ Flux EC50” value was 34.2 nM.

B13: Example 53: pE-R-P-R-L-c-H-K-G-P-Nle-C-F-OH (peptide)
peptide: [pGlu]RPRL[dC]HKGP[Nle]CF-OH
modifications: disulfide 6-12
SMILES: CCCC[C@@H]1NC(=O)[C@@H]2CCCN2C(=O)CNC(=O)[C@H](CCCCN)NC(=O)[C@H](Cc2c[nH]cn2)NC(=O)[C@H](NC(=O)[C@H](CC(C)C)NC(=O)[C@H](CCCNC(=N)N)NC(=O)[C@@H]2CCCN2C(=O)[C@H](CCCNC(=N)N)NC(=O)[C@@H]2CCC(=O)N2)CSSC[C@@H](C(=O)N[C@@H](Cc2ccccc2)C(=O)O)NC1=O
Consider B13, for which the “hAPJ Ca2+ Flux EC50” value turned out to be 1.07 nM.

B14: Example 51: pE-R-P-R-L-C-H-K-G-P-Nle-hC-F-OH (peptide)
peptide: [pGlu]RPRLCHKGP[Nle][hCys]F-OH
modifications: disulfide 6-12
SMILES: CCCC[C@@H]1NC(=O)[C@@H]2CCCN2C(=O)CNC(=O)[C@H](CCCCN)NC(=O)[C@H](Cc2c[nH]cn2)NC(=O)[C@@H](NC(=O)[C@H](CC(C)C)NC(=O)[C@H](CCCNC(=N)N)NC(=O)[C@@H]2CCCN2C(=O)[C@H](CCCNC(=N)N)NC(=O)[C@@H]2CCC(=O)N2)CSSCC[C@@H](C(=O)N[C@@H](Cc2ccccc2)C(=O)O)NC1=O
On to B14, for which the “hAPJ Ca2+ Flux EC50” value worked out at 1.09 nM.

B15: Example 44: pE-R-P-R-L-C-H-K-L-P-Nle-C-F-OH (peptide)
peptide: [pGlu]RPRLCHKLP[Nle]CF-OH
modifications: disulfide 6-12
SMILES: CCCC[C@@H]1NC(=O)[C@@H]2CCCN2C(=O)[C@H](CC(C)C)NC(=O)[C@H](CCCCN)NC(=O)[C@H](Cc2c[nH]cn2)NC(=O)[C@@H](NC(=O)[C@H](CC(C)C)NC(=O)[C@H](CCCNC(=N)N)NC(=O)[C@@H]2CCCN2C(=O)[C@H](CCCNC(=N)N)NC(=O)[C@@H]2CCC(=O)N2)CSSC[C@@H](C(=O)N[C@@H](Cc2ccccc2)C(=O)O)NC1=O
As for B15, the “hAPJ Ca2+ Flux EC50” value came out at 5.94 nM.

B16: Example 54: pE-R-P-R-L-C-H-K-G-P-Nle-(D-hC)-F-OH (peptide)
peptide: [pGlu]RPRLCHKGP[Nle][d(hCys)]F-OH
modifications: disulfide 6-12
SMILES: CCCC[C@@H]1NC(=O)[C@@H]2CCCN2C(=O)CNC(=O)[C@H](CCCCN)NC(=O)[C@H](Cc2c[nH]cn2)NC(=O)[C@@H](NC(=O)[C@H](CC(C)C)NC(=O)[C@H](CCCNC(=N)N)NC(=O)[C@@H]2CCCN2C(=O)[C@H](CCCNC(=N)N)NC(=O)[C@@H]2CCC(=O)N2)CSSCC[C@H](C(=O)N[C@@H](Cc2ccccc2)C(=O)O)NC1=O
Consider B16, for which the “hAPJ Ca2+ Flux EC50” value came out at 6.7 nM.
